Measurements reported in US6191256A, “Recombinant factor VIII binding peptides” (Bayer Corporation, priority 1998, dated 2001).
Each block holds one substance with its values, some of them ahead of it.

What was measured:
rFVIII [1] = molecular target: T1, rFVIII (Homo sapiens, UniProt P00451); assay: rFVIII activity recovery from peptide columns by chromogenic substrate assay (COATEST); assay type: biochemical; conditions: for 0.5M CaCl2 % total: activity recovery; for Flow through IU: rFVIII activity in fraction
Summary of the method: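 Peptide resin columns (0.4×5 cm, 5°C) loaded with 10,000 ng rFVIII in 1:10 PPF, step-eluted with 0.5 M and 1.0 M CaCl2, then 2% acetic acid (neutralized with Tris). Fractions stabilized with hSA; rFVIII activity recovery by chromogenic substrate assay against a MEGA 1-calibrated standard.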

rFVIII [2] = molecular target: T1, rFVIII; assay: confirmatory binding assay in filtration plate format using 14C-rFVIII; conditions: for 0.5M CaCl2 % total / 2% acetic acid % total / 2% acetic acid dpm / 0.5M CaCl2 dpm: 5 mg beads; for 0.5M CaCl2 dpm: 5° C.; for beads % total / beads dpm: remaining on beads after washes
Summary of the method: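 Peptides synthesized on TOYOPEARL AF amino 650 M resin (0.1 mmole/g) were tested in triplicate after equilibration in 20 mM imidazole, 10 mM CaCl2, 0.105 M NaCl, pH 6.9. The beads were incubated 1 hour at 5° C with 20-30 nM 14C-rFVIII in neat PPF, then washed with buffer, 0.5 M and 1.0 M CaCl2, and 2% acetic acid. Mass balance was taken from dpm of each fraction and of the beads.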

rFVIII [3] = molecular target: T1, rFVIII; assay: column format binding assay, rFVIII mass per fraction by sandwich capture ELISA for the light chain; conditions: for Flow through ng: 10,000 ng rFVIII in 1:10 PPF injected, 5° C.
Summary of the method: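 Peptide resin columns (0.4×5 cm, 5 °C) loaded with 10,000 ng rFVIII in 1:10 PPF, 10 min residence time; step elution with 0.5 M and 1.0 M CaCl2 then 2% acetic acid (neutralized). Fraction rFVIII mass by light-chain sandwich ELISA; activity by chromogenic substrate; total protein by A280.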

[4] = Table 4, 14C-rFVIII 30 nM in PPF
[5] = Table 3, 14C-rFVIII 20 nM in PPF

T1 sequence (P00451 20-2351): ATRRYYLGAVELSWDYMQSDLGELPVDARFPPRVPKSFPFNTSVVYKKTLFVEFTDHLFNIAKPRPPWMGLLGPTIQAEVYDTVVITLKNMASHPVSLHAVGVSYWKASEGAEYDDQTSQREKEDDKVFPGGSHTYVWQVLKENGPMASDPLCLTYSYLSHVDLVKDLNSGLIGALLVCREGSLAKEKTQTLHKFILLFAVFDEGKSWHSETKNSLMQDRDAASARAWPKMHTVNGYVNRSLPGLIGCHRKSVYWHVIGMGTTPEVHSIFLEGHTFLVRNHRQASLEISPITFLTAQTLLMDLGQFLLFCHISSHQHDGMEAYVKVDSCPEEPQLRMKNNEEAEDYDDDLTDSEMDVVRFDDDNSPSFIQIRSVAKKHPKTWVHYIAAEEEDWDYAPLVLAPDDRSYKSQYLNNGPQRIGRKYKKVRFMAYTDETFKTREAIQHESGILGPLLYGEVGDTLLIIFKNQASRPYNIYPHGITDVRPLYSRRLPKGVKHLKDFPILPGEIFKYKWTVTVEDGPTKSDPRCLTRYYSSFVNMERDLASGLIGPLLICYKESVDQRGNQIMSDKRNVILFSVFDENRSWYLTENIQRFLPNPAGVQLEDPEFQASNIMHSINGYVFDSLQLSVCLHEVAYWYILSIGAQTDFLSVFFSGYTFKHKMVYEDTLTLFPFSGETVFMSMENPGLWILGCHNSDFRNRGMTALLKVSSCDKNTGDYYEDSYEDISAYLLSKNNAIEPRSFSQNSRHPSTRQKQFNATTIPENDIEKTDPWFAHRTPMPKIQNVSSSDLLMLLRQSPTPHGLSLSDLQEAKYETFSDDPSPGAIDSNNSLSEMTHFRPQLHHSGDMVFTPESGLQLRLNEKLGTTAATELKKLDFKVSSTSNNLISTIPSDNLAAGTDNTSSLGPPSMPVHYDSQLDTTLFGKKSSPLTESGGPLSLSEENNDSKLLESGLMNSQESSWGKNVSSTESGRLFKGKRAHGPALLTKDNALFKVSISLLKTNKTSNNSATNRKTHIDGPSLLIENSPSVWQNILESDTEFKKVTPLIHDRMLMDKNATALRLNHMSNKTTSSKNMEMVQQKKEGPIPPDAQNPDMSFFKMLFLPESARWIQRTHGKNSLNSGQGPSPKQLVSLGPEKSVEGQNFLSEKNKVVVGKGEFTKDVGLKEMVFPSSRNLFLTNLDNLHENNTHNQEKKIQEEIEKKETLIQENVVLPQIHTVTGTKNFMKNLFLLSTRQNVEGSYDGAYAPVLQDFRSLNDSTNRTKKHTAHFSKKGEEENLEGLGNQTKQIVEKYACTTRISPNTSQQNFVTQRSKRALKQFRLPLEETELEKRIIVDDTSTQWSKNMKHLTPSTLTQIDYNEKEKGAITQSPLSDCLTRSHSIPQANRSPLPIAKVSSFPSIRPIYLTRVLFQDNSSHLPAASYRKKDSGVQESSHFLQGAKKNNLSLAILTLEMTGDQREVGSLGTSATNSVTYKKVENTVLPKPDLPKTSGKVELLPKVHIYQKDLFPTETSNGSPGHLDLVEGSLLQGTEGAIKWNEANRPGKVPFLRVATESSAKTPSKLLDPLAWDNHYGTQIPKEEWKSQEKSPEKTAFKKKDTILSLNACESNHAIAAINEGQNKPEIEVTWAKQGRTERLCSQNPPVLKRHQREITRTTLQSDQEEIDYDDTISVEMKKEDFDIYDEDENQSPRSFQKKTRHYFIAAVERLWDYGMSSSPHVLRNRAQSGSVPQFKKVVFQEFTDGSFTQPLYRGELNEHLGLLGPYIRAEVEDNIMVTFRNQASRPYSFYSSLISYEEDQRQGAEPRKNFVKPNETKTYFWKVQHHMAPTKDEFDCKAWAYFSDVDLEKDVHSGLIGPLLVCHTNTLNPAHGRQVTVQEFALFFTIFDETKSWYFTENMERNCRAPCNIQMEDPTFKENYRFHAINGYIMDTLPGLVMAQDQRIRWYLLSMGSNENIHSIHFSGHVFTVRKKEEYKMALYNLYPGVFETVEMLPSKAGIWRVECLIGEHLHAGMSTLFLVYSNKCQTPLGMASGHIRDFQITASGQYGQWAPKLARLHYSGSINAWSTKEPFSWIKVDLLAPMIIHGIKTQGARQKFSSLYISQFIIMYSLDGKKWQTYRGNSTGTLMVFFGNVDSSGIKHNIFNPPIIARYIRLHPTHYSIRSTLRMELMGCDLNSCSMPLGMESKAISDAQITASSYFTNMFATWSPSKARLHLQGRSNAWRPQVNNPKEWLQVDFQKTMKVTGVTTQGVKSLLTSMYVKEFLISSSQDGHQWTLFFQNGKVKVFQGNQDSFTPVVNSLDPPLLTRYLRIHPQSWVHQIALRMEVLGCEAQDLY
T1 sequence (P00451 1668-2351 limits assumed): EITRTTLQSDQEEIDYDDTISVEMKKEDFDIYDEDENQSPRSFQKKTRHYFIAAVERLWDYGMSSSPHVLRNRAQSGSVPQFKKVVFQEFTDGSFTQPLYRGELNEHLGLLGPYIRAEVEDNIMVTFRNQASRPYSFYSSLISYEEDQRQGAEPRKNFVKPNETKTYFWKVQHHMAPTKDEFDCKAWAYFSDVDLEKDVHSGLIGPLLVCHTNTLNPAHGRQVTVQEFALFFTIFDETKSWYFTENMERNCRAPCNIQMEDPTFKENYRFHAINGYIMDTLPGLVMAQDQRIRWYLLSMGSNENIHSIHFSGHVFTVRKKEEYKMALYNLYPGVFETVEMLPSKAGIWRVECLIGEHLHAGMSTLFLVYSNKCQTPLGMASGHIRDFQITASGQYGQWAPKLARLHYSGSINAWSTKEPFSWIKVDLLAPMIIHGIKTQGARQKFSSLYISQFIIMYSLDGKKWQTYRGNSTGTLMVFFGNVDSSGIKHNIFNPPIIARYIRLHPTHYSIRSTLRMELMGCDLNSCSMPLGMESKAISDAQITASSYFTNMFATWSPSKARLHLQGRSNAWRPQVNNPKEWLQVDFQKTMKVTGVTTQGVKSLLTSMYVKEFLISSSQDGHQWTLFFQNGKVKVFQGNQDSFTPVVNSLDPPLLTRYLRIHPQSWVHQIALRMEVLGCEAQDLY

0.5M CaCl2 IU (rFVIII [1]; Table 8): 0.0 IU | 2% acetic acid % total (rFVIII [1]; Table 8): 100% | 2% acetic acid IU (rFVIII [1]; Table 8): 2.3 IU | Flow through % total (rFVIII [1]; Table 8): 0% | Total IU (rFVIII [1]; Table 8): 2.3 IU | 0.5M CaCl2 % total (rFVIII [1]; Table 8): 0% | Flow through IU (rFVIII [1]; Table 8): 0.0 IU | Total dpm (rFVIII [2]; Table 4, 14C-rFVIII 30 nM): 4116 dpm | 0.5M CaCl2 % total (rFVIII [2]; [4]): 16% | 2% acetic acid % total (rFVIII [2]; [4]): 19% | 2% acetic acid dpm (rFVIII [2]; [4]): 783 dpm | 0.5M CaCl2 dpm (rFVIII [2]; Table 4, 14C-rFVIII 30 nM in PPF, 5.0 × 10^15 dpm/mole): 675 dpm | beads % total (rFVIII [2]; Table 4, 14C-rFVIII 30 nM): 65% | beads dpm (rFVIII [2]; Table 4, 14C-rFVIII 30 nM): 2658 dpm | binding of rFVIII in words (rFVIII [2]; plate format): tight binding | 0.5M CaCl2 ng (rFVIII [3]; Table 6): 4 ng | 0.5M CaCl2 % total (rFVIII [3]; Table 6): 0% | 2% acetic acid % total (rFVIII [3]; Table 6): 100% | 2% acetic acid ng (rFVIII [3]; Table 6): 4500 ng | Flow through % total (rFVIII [3]; Table 6): 0% | Total ng (rFVIII [3]; Table 6): 4504 ng | Flow through ng (rFVIII [3]; Table 6): 0 ng
Substance: 22 (FVFLVR) [compound 22]

0.5M CaCl2 IU (rFVIII [1]; Table 7): 32.8 IU | 2% acetic acid % total (rFVIII [1]; Table 7): 2% | 2% acetic acid IU (rFVIII [1]; Table 7): 0.58 IU | Flow through % total (rFVIII [1]; Table 7): 0% | Total IU (rFVIII [1]; Table 7): 36.5 IU | 0.5M CaCl2 % total (rFVIII [1]; Table 7): 90% | Flow through IU (rFVIII [1]; Table 7): 0.03 IU | Activity results % total (rFVIII [1]; Table 9, 0.5M CaCl2 fraction): 90% | Total dpm (rFVIII [2]; Table 3, 14C-rFVIII 20 nM): 3162 dpm | 0.5M CaCl2 % total (rFVIII [2]; [5]): 85% | 2% acetic acid % total (rFVIII [2]; [5]): 12% | 2% acetic acid dpm (rFVIII [2]; [5]): 368 dpm | 0.5M CaCl2 dpm (rFVIII [2]; Table 3, 14C-rFVIII 20 nM in PPF, 3.0 × 10^15 DPM/mole): 2694 dpm | beads % total (rFVIII [2]; Table 3, 14C-rFVIII 20 nM): 3% | beads dpm (rFVIII [2]; Table 3, 14C-rFVIII 20 nM): 99 dpm | 0.5M CaCl2 ng (rFVIII [3]; Table 5): 4961 ng | 0.5M CaCl2 % total (rFVIII [3]; Table 5): 88% | 2% acetic acid % total (rFVIII [3]; Table 5): 1% | 2% acetic acid ng (rFVIII [3]; Table 5): 61 ng | Flow through % total (rFVIII [3]; Table 5): 10% | Total ng (rFVIII [3]; Table 5): 5651 ng | Flow through ng (rFVIII [3]; Table 5): 583 ng | ELISA results % total (rFVIII [3]; Table 9, 0.5M CaCl2 fraction): 88%
Substance: 1 (KPNPLA) [compound 1]
